Assay results published in PMC3656785.

Target: VipB on the GAL4 DNA-binding domain (pGBKT7) (V. cholerae)
Experiment: two-hybrid
Conditions: not given

Going from “VipA D104A/V106A/V110A fused to the GAL4 activation domain (pGADT7) (natural protein)” to “VipA V110A fused to the GAL4 activation domain (pGADT7) (natural protein)”, the relative β-gal activity rises from 48.8% to 74.6%.

Compared with “VipA fused to the GAL4 activation domain (pGADT7) (natural protein)”, “VipA V106A fused to the GAL4 activation domain (pGADT7) (natural protein)” is lower in relative β-gal activity: 100% for the first, 92.4% for the second.

Going from “VipA D104A/V106A fused to the GAL4 activation domain (pGADT7) (natural protein)” to “VipA D104A fused to the GAL4 activation domain (pGADT7) (natural protein)”, the relative β-gal activity rises from 64.1% to 92.7%.

Target: VipB fused to the zinc finger DNA-binding domain of murine Zif268
Experiment: not given
Conditions: parent: est. 680; read off a plot

Going from “VipA fused to the ω subunit of E. coli RNAP V110A; L113A” to “VipA fused to the ω subunit of E. coli RNAP D104A; V106A”, the response rises from 120 Miller units to 230 Miller units.

Going from “VipA fused to the ω subunit of E. coli RNAP Q109A” to “VipA fused to the ω subunit of E. coli RNAP D104A; V106A; V110A”, the response falls from 630 Miller units to 120 Miller units.

Compared with “VipA fused to the ω subunit of E. coli RNAP V110A”, “VipA fused to the ω subunit of E. coli RNAP P111A” is higher in response: 430 Miller units for the first, 590 Miller units for the second.

Going from “VipA fused to the ω subunit of E. coli RNAP D104A” to “VipA fused to the ω subunit of E. coli RNAP Q109A; V110I”, the response rises from 460 Miller units to 710 Miller units.

Compared with “VipA fused to the ω subunit of E. coli RNAP V106A”, “VipA fused to the ω subunit of E. coli RNAP L113A” is higher in response: 460 Miller units for the first, 490 Miller units for the second.

Going from “VipA fused to the ω subunit of E. coli RNAP D104A; V106A; V110A; L113A” to “VipA fused to the ω subunit of E. coli RNAP S108A”, the response rises from 90 Miller units to 720 Miller units.

With “VipA fused to the ω subunit of E. coli RNAP E112A” the response was 720 Miller units.
